The results in this text go back to publication PMC9482650, “Quantitative fragmentomics allow affinity mapping of interactomes” (Nature Communications, 2022).

For experiment [1], the system named is HaCat cell extract preys. Briefly: PDZ-AP-MS, biotinylated MBP-PDZ baits. Format: binding, human. The following applies: for Difference log2: enrichment of prey; for Ratio SNX27/MBP: bait SNX27 PDZ. As to the method: (§1) For PDZ-AP-MS experiments, PDZ domains were cloned as His6-AviTag-MBP-PDZ constructs. For co-expression with BirA, E. coli BL21(DE3) cells were co-transformed with His6-AviTag-MBP, or His6-AviTag-MBP-PDZ-coding and PET21a-BirA (Addgene #20857) plasmids. Simultaneously to IPTG induction, 50 µM biotin was added to the media. After cell harvesting, the lysis buffer was also supplemented with 50 µM biotin. Otherwise, expression and double affinity purification was identical as previously described in details.
(§2) For PBM-AP-MS experiments, 30 μl streptavidin resin was mixed with biotin or peptide at 50–60 μM concentration in 6–6.5 resin volume for 60 min to achieve resin saturation. For PDZ-AP-MS experiments, 30 μl streptavidin resin was mixed with biotinylated MBP or MBP-PDZ at 40-50 μM concentration in >1000× resin volume for 60 min to achieve resin saturation. After saturation, resins were washed a single time (ten resin volume, holdup buffer), and were depleted with biotin (1 mM biotin, 5–10 resin volume, 10 min). Finally, resins were washed two times. 0.5 ml 2 mg/ml cell lysate was added to the dry resin (1 mg total input) and were incubated at 4 °C for 2 h. Then, the beads were washed three times with 10 resin volume buffer containing: 50 mM TRIS pH 8.5, 150 mM NaCl, 1% TritonX-100, 10× complete EDTA-free protease inhibitor cocktail, 2 mM EDTA, 1 mM TCEP. Then, the beads were washed two times with ten resin volume buffer containing: 50 mM TRIS pH 8.5, 150 mM NaCl, 1 mM TCEP. Finally, captured protein was eluted from the resin in two steps and the eluted fractions were pooled. For each elution the beads were incubated for 30 min with three resin volume buffer containing: 20 mM TRIS pH8.5, 100 mM NaCl, 500 μM TCEP, 8 M Urea. Between each step, the beads were separated by mild centrifugation and the supernatant was removed by gentle pipetting.
(§3) The samples were precipitated with TCA 20% overnight at 4 °C and centrifuged at 14,000 rpm for 10 min at 4 °C. The protein pellets were washed twice with 1 mL cold acetone and air dried. The protein extracts were solubilized in urea 8 M, reduced with 5 mM TCEP for 30 min, and alkylated with 10 mM iodoacetamide for 30 min in the dark. Double digestion was performed at 37 °C with 500 ng endoproteinase Lys-C for 4 h, followed by fourfold dilution and an overnight digestion with 500 ng trypsin. Peptide mixtures were then desalted on C18 spin-column and dried on Speed-Vacuum.
(§4) Samples were analyzed using an Ultimate 3000 nano-RSLC (Thermo Scientific, San Jose California) coupled in line with a LTQ-Orbitrap ELITE mass spectrometer via a nano-electrospray ionization source (Thermo Scientific, San Jose California). Peptide mixtures were injected in 0.1% TFA on a C18 Acclaim PepMap100 trap-column (75 µm ID × 2 cm, 3 µm, 100 Å, Thermo Fisher Scientific) for 3 min at 5 µL/min with 2% ACN, 0.1% FA in H2O and then separated on a C18 Accucore nano-column (75 µm ID × 50 cm, 2.6 µm, 150 Å, Thermo Fisher Scientific) at 220 nl/min and 38 °C with a 90 min linear gradient from 5% to 30% buffer B (A: 0.1% FA in H2O/B: 99% ACN, 0.1% FA in H2O), regeneration at 5% B. The mass spectrometer was operated in positive ionization mode, in data-dependent mode with survey scans from m/z 350–1500 acquired in the Orbitrap at a resolution of 120,000 at m/z 400. The 20 most intense peaks from survey scans were selected for further fragmentation in the Linear Ion Trap with an isolation window of 2.0 Da and were fragmented by CID with normalized collision energy of 35%. (TOP20CID method) Unassigned and single charged states were excluded from fragmentation. The Ion Target Value for the survey scans (in the Orbitrap) and the MS2 mode (in the Linear Ion Trap) were set to 1E6 and 5E3 respectively and the maximum injection time was set to 100 ms for both scan modes. Dynamic exclusion was set to 20 s after one repeat count with mass width at ±10 ppm. […]

Experiment [2] has as its system HeLa cell extract preys. As to the kind of experiment: PDZ-AP-MS, biotinylated MBP-PDZ baits. The format is binding, human. To be noted: for Ratio: fold enrichment of prey; for Difference: log2 enrichment of prey. As to the method:
as §1, §2, §3, §4

The mark [3] stands for this setting: bait SCRIB_2 PDZ (biotinylated MBP-PDZ) vs MBP control.
[4] abbreviates: bait SCRIB_2 PDZ vs MBP control.

B1: CAVIN1 (protein, UniProt Q6NZI2 1-390, looked up)
Caveolae-associated protein 1: MEDPTLYIVERPLPGYPDAEAPEPSSAGAQAAEEPSGAGSEELIKSDQVNGVLVLSLLDKIIGAVDQIQLTQAQLEERQAEMEGAVQSIQGELSKLGKAHATTSNTVSKLLEKVRKVSVNVKTVRGSLERQAGQIKKLEVNEAELLRRRNFKVMIYQDEVKLPAKLSISKSLKESEALPEKEGEELGEGERPEEDAAALELSSDEAVEVEEVIEESRAERIKRSGLRRVDDFKKAFSKEKMEKTKVRTRENLEKTRLKTKENLEKTRHTLEKRMNKLGTRLVPAERREKLKTSRDKLRKSFTPDHVVYARSKTAVYKVPPFTFHVKKIREGQVEVLKATEMVEVGADDDEGGAERGEAGDLRRGSSPDVHALLEITEESDAVLVDKSDSD
As for B1, the “Difference log2” value in experiment [1] (bait SNX27 PDZ vs MBP) is given as 7.364. For the same molecule, the “Ratio SNX27/MBP” value in experiment [1] (fold change of prey) was 164.68.

B2: SFPQ (protein, UniProt P23246 1-707, looked up)
Splicing factor, proline- and …: MSRDRFRSRGGGGGGFHRRGGGGGRGGLHDFRSPPPGMGLNQNRGPMGPGPGQSGPKPPIPPPPPHQQQQQPPPQQPPPQQPPPHQPPPHPQPHQQQQPPPPPQDSSKPVVAQGPGPAPGVGSAPPASSSAPPATPPTSGAPPGSGPGPTPTPPPAVTSAPPGAPPPTPPSSGVPTTPPQAGGPPPPPAAVPGPGPGPKQGPGPGGPKGGKMPGGPKPGGGPGLSTPGGHPKPPHRGGGEPRGGRQHHPPYHQQHHQGPPPGGPGGRSEEKISDSEGFKANLSLLRRPGEKTYTQRCRLFVGNLPADITEDEFKRLFAKYGEPGEVFINKGKGFGFIKLESRALAEIAKAELDDTPMRGRQLRVRFATHAAALSVRNLSPYVSNELLEEAFSQFGPIERAVVIVDDRGRSTGKGIVEFASKPAARKAFERCSEGVFLLTTTPRPVIVEPLEQLDDEDGLPEKLAQKNPMYQKERETPPRFAQHGTFEYEYSQRWKSLDEMEKQQREQVEKNMKDAKDKLESEMEDAYHEHQANLLRQDLMRRQEELRRMEELHNQEMQKRKEMQLRQEEERRRREEEMMIRQREMEEQMRRQREESYSRMGYMDPRERDMRMGGGGAMNMGDPYGSGGQKFPPLGGGGGIGYEANPGVPPATMSGSMMGSDMRTERFGQGGAGPVGGQGPRGMGPGTPAGYGRGREEYEGPNKKPRF
Consider B2, for which the Ratio was 33.0339 in experiment [2] (bait DLG1_1 PDZ vs MBP control) and 39.0318 in experiment [2] (setting [4]). For the same molecule, the Difference in experiment [2] (bait DLG1_1 PDZ vs MBP control) is 5.046; in experiment [2] (setting [3]), 5.287.

B3: HSPD1 (protein, UniProt P10809 27-573, looked up)
60 kDa heat shock protein, …: AKDVKFGADARALMLQGVDLLADAVAVTMGPKGRTVIIEQSWGSPKVTKDGVTVAKSIDLKDKYKNIGAKLVQDVANNTNEEAGDGTTTATVLARSIAKEGFEKISKGANPVEIRRGVMLAVDAVIAELKKQSKPVTTPEEIAQVATISANGDKEIGNIISDAMKKVGRKGVITVKDGKTLNDELEIIEGMKFDRGYISPYFINTSKGQKCEFQDAYVLLSEKKISSIQSIVPALEIANAHRKPLVIIAEDVDGEALSTLVLNRLKVGLQVVAVKAPGFGDNRKNQLKDMAIATGGAVFGEEGLTLNLEDVQPHDLGKVGEVIVTKDDAMLLKGKGDKAQIEKRIQEIIEQLDVTTSEYEKEKLNERLAKLSDGVAVLKVGGTSDVEVNEKKDRVTDALNATRAAVEEGIVLGGGCALLRCIPALDSLTPANEDQKIGIEIIKRTLKIPAMTIAKNAGVEGSLIVEKIMQSSSEVGYDAMAGDFVNMVEKGIIDPTKVVRTALLDAAGVASLLTTAEVVVTEIPKEEKDPGMGAMGGMGGGMGGGMF
In the case of B3, the “Difference log2” value in experiment [1] (bait DLG1_1 PDZ vs MBP) is 6.29. In addition, in experiment [1] (bait DLG1_1 PDZ, fold change of prey), the “Ratio DLG1_1/MBP” value was 78.233. Moreover, in experiment [2] (bait TX1BP3 PDZ vs MBP control), the Ratio stood at 104.688 and the Difference is 6.71.

B4: CAV1 (protein, UniProt Q03135 2-178, looked up)
Caveolin-1: SGGKYVDSEGHLYTVPIREQGNIYKPNNKAMADELSEKQVYDAHTKEIDLVNRDPKHLNDDVVKIDFEDVIAEPEGTHSFDGIWKASFTTFTVTKYWFYRLLSALFGIPMALIWGIYFAILSFLHIWAVVPCIKSFLIEIQCISRVYSIYVHTVCDPLFEAVGKIFSNVRINLQKEI
Turning to B4, the “Difference log2” value in experiment [1] (bait SNX27 PDZ vs MBP) was determined as 8.5897. Further, the “Ratio SNX27/MBP” value in experiment [1] (fold change of prey) stood at 385.263.

B5: FUS (protein, UniProt P35637 1-526, looked up)
RNA-binding protein FUS: MASNDYTQQATQSYGAYPTQPGQGYSQQSSQPYGQQSYSGYSQSTDTSGYGQSSYSSYGQSQNTGYGTQSTPQGYGSTGGYGSSQSSQSSYGQQSSYPGYGQQPAPSSTSGSYGSSSQSSSYGQPQSGSYSQQPSYGGQQQSYGQQQSYNPPQGYGQQNQYNSSSGGGGGGGGGGNYGQDQSSMSSGGGSGGGYGNQDQSGGGGSGGYGQQDRGGRGRGGSGGGGGGGGGGYNRSSGGYEPRGRGGGRGGRGGMGGSDRGGFNKFGGPRDQGSRHDSEQDNSDNNTIFVQGLGENVTIESVADYFKQIGIIKTNKKTGQPMINLYTDRETGKLKGEATVSFDDPPSAKAAIDWFDGKEFSGNPIKVSFATRRADFNRGGGNGRGGRGRGGPMGRGGYGGGGSGGGGRGGFPSGGGGGGGQQRAGDWKCPNPTCENMNFSWRNECNQCKAPKPDGPGGGPGGSHMGGNYGDDRRGGRGGYDRGGYRGRGGDRGGFRGGRGGGDRGGFGPGKMDSRGEHRQDRRERPY
In the case of B5, in experiment [2] (setting [3]), the Difference amounted to 4.68. Also, in experiment [2] (setting [4]), the Ratio was 25.6321.

B6: DARS1 (protein, UniProt P14868 1-501, looked up)
Aspartate--tRNA ligase, …: MPSASASRKSQEKPREIMDAAEDYAKERYGISSMIQSQEKPDRVLVRVRDLTIQKADEVVWVRARVHTSRAKGKQCFLVLRQQQFNVQALVAVGDHASKQMVKFAANINKESIVDVEGVVRKVNQKIGSCTQQDVELHVQKIYVISLAEPRLPLQLDDAVRPEAEGEEEGRATVNQDTRLDNRVIDLRTSTSQAVFRLQSGICHLFRETLINKGFVEIQTPKIISAASEGGANVFTVSYFKNNAYLAQSPQLYKQMCICADFEKVFSIGPVFRAEDSNTHRHLTEFVGLDIEMAFNYHYHEVMEEIADTMVQIFKGLQERFQTEIQTVNKQFPCEPFKFLEPTLRLEYCEALAMLREAGVEMGDEDDLSTPNEKLLGHLVKEKYDTDFYILDKYPLAVRPFYTMPDPRNPKQSNSYDMFMRGEEILSGAQRIHDPQLLTERALHHGIDLEKIKAYIDSFRFGAPPHAGGGIGLERVTMLFLGLHNVRQTSMFPRDPKRLTP
As to B6, the “Difference log2” value in experiment [1] (bait SCRIB_2 PDZ vs MBP) came to 3.605. Moreover, the “Ratio SCRIB_2/MBP” value in experiment [1] (bait SCRIB_2 PDZ, fold change of prey) worked out at 12.1719.
